Test results from patent US8404647B2, “Peptidylarginine deiminase (PAD) inhibitors” (Chiralix B.V., priority 2008, dated 2013).
Marks after values point to notes of the source that are not given here. Numbered stars: 1 amine (or outer) side, 2 acyl side, 3 side chain; on linkers, the order of the positions; unused ones are H or OH. Square brackets hold non-standard residues; d marks the D form. Ends that are not written are not given here. Peptide text beside a SMILES is read from it. * marks the point of attachment. Orn(fluoroacetimidoyl) = N=C(CF)NCCC[C@H](N)C(=O)O; X1 = N=C(CCl)NCCC[C@H](N[*:1])C(=O)[*:2]; Moc = COC(=O)*

Key:
creatine kinase (CK) = assay: Creatine kinase activity (CK NAC activated liquiUV test); format: biochemical, mammalian; conditions: enzyme treated with inhibitor 10 min at room temperature
Experimental: The activities of CK and TG (both purchased from Sigma-Aldrich (Schnelldorf, Germany) were assayed with the help of the commercial kits CK NAC activated liquiUV test form
Human GmbH (Wiesbaden, Germany) and the Enzymatic Assay of [sequence] from Sigma-Aldrich (Schnelldorf, Germany) according to the manufacturers' instructions.

PAD4 [1] = target: T1, PAD4 (Homo sapiens, UniProt Q9UM07); assay: Citrullination of synthetic peptides by recombinant human PAD4 (MALDI-TOF and ESI-Q-TOF mass spectrometry); format: biochemical; set-up: His6; made in house; conditions: for PAD4 conversion: Arg: share of peptide still unconverted (Arg); for PAD4 conversion: 1 Cit: share of peptide with one citrulline; for PAD4 conversion: 2 Cit: share of peptide with two citrullines
Experimental: (§1) Subsequently, the citrullinated proteins were isolated from the cell lysates by immunoaffinity purification using the RA3 single chain antibody fragment (scFv), which is specific for citrullinated epitopes {Raats et al., 2003}. After digestion of the purified proteins with trypsin, the amino acid sequence of the resulting peptides was determined by tandem mass spectrometry. Based upon the mass spectrometry data the peptides containing citrullinated residues were identified. In total 90 and 57 citrullinated peptides were identified in proteins derived from the COS-1 cells expressing PAD2 and PAD4, respectively, and 107 and 38 citrullinated peptides were obtained from HEK-293 cell material for PAD2 and PAD4, respectively. The frequency of amino acids at each of the positions between 5 residues N-terminal and 5 residues C-terminal from a citrullinated residue was derived from the combined sequences of these sites and is illustrated in Table 1. […] The efficiency by which these peptides were citrullinated by the human PAD2 and PAD4 enzymes was investigated by incubating them with the bacterially expressed, His6-tagged and IMAC purified, recombinant enzymes, followed by analysis of the products by both MALDI-TOF and ESI-Q-TOF mass spectrometry.

PAD2 [2] = target: T2, PAD2 (Homo sapiens, UniProt Q9Y2J8); assay: Citrullination of synthetic peptides by recombinant human PAD2 (MALDI-TOF and ESI-Q-TOF mass spectrometry); format: biochemical; set-up: His6; made in house; conditions: for PAD2 conversion: Arg: share of peptide still unconverted (Arg); for PAD2 conversion: 1 Cit: share of peptide with one citrulline; for PAD2 conversion: 2 Cit: share of peptide with two citrullines
Experimental: as §1

PAD2 [3] = target: T2, PAD2; assay: Conversion (R to Cit) of substrate peptides by PAD2, mass spectrometry; format: biochemical; conditions: for Conversion (%): Table 9, PAD2; for Conversion by PAD2 (%): Table 10
Experimental: In a similar fashion as for PAD4 we identified improved peptide substrates for PAD2. Again L1 was used as a lead compound. The set of 152 peptides from Table 3 was used and testing was performed as described before.
(§2) Conversion of arginine into citrulline in the substrate peptides by PAD2 or PAD4 using mass spectrometry was performed as follows. A candidate substrate peptide was incubated with a PAD as indicated for several hours at 37° C. The reaction was quenched by the addition with acetic acid. A sample was analysed on a Qtof mass spectrometer (Micromass, UK) and the mass spectrum was compared with that of the same peptide not treated with PAD. Normally, 2^+- and 3^+-ions are detected. The conversion (ΔM=0.98 Da) was calculated on the 2^+- and 3^+-ions individually, and subsequently averaged taking into account the relative peak height of the 2^+- and 3^+-signals (see FIG. 5).

PAD4 [4] = target: T1, PAD4; assay: Conversion (R to Cit) of substrate peptides by PAD4, mass spectrometry; format: biochemical; conditions: for Conversion (%): PAD4; for Conversion by PAD4 (%): Table 10; for Conversion: Table 7, PAD4, test system with 3 times less enzyme
Description: From previous studies it was known that D-S-Q-F-A-F-R-G-A-S-A-S-D (designated here as L1: SEQ ID NO: 11) is a substrate for PAD2 and PAD 4. To obtain better substrates, and subsequently powerful inhibitors, we intended to identify structural elements that improve substrate properties. A set of 152 individual analog peptides was generated, each differing from L1 by one amino acid at one of the positions −4 to −1 or 1 to 4.
In Table 3 the conversion of each analog (R to Cit conversion) is depicted. Values of the analogs relate to the conversion of the analog compared to the conversion of L1 under standard conditions (100 means a conversion equal to L1, 50 means conversion of 50% of that of L1, 175 means conversion of 175% of that of L1). Numbers above 100 thus relate to amino acid substitutions that improve substrate properties.
Peptides of table 4 are represented by the following sequences SEQ ID NO: 22-31 and 33-46. Control peptide are represented by the following sequences SEQ ID NO: 11 as control L1 and SEQ ID NO: 32 as control L2. Unfortunately, a substantial number of designed peptides were too polar to be analyzed on our LC-MS system (indicated in Table 4 as n.t., not trapped on the column). We therefore also generated and tested these peptides containing two additional N-terminal F-residues to increase hydrophobicity. In this form peptides were trapped on the column and could be analyzed (see Table 5).
Based on the above results we designed 20 peptides containing multiple amino acids that improve substrate properties (see Table 7). The indicated peptides were synthesized and tested in order to identify the best substrate from this group. Here we used a test system with less enzyme (3 times less) compared to the experiments described above.
as §2

[5] = Table 5, peptides with two additional N-terminal F-residues

T2 sequence (Q9Y2J8 whole entry): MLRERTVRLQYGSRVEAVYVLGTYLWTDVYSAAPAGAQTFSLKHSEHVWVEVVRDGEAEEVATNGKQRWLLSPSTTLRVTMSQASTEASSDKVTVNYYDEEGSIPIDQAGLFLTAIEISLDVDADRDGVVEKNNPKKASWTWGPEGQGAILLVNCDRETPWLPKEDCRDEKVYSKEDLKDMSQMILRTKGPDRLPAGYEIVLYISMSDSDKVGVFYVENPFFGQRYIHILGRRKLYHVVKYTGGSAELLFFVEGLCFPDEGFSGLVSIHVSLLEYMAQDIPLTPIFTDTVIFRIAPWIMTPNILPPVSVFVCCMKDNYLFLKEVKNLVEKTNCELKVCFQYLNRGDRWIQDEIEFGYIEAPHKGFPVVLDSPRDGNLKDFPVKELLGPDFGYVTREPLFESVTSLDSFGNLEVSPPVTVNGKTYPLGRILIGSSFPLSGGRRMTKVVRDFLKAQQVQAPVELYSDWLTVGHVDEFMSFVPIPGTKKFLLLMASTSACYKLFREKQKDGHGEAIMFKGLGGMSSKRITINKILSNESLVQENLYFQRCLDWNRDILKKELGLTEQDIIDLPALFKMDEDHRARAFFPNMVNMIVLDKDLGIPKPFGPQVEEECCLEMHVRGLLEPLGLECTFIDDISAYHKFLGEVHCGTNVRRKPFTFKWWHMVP
T1 sequence (Q9UM07 whole entry, the tested form may be a part): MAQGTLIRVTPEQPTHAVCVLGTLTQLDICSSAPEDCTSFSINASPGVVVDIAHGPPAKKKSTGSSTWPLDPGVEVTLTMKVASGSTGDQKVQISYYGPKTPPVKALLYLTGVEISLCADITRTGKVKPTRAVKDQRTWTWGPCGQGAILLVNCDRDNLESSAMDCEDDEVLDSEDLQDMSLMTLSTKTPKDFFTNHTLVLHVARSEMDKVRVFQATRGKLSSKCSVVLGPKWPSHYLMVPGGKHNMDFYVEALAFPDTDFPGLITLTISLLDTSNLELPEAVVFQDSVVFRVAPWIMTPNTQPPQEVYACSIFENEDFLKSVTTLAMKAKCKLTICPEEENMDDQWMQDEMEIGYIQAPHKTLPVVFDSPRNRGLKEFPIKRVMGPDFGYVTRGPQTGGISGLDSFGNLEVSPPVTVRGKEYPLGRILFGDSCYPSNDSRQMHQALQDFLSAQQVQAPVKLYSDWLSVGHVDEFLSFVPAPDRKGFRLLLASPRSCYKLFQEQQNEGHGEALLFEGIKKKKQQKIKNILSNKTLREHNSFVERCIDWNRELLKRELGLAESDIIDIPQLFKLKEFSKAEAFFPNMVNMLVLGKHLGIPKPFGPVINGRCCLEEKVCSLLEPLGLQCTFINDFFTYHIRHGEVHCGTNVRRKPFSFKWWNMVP

PAD4 conversion: Arg (PAD4 [1]) [%] | PAD4 conversion: 1 Cit (PAD4 [1]) [%] | PAD2 conversion: Arg (PAD2 [2]) [%] | PAD2 conversion: 1 Cit (PAD2 [2]) [%] | Conversion by PAD2 (%) (PAD2 [3]) | Conversion by PAD4 (%) (PAD4 [4]) | Compound | further results
85 | 15 | 15 | 85 |  |  | DSEGTWRKGPEAD [SEQ ID NO: 8] | 
97 | 3 | 54 | 46 |  |  | DGYGGSRDSYSSS [SEQ ID NO: 3] | 
6 | 69 | 14 | 14 |  |  | DSRFYWRGGGKSD [SEQ ID NO: 10] | PAD4 conversion: 2 Cit (PAD4 [1]): 25%; PAD2 conversion: 2 Cit (PAD2 [2]): 73%
93 | 7 | 43 | 57 |  |  | DSSEELRGGGKSD [SEQ ID NO: 9] | 
2 | 69 | 1 | 96 |  |  | IGSRGDRSGFGKF [SEQ ID NO: 6] | PAD4 conversion: 2 Cit (PAD4 [1]): 29%; PAD2 conversion: 2 Cit (PAD2 [2]): 4%
 |  |  |  | 97% | 64% | D-S-K-K-F-H-R-D-F-L-Y-S-D (DSKKFHRDFLYSD; not fully specified (C-terminus); printed as D-S-K-K-F-H-R-D-F-L-Y-S-D) [Peptide 0708-25] | Conversion (PAD4 [4]): 56
 |  |  |  | 90% | 25% | D-S-K-F-A-F-R-G-G-I-A-S-D (DSKFAFRGGIASD; not fully specified (C-terminus); printed as D-S-K-F-A-F-R-G-G-I-A-S-D) [Peptide 0735-41] | Conversion (%) (PAD2 [3]): 90%
37 | 60 | 6 | 34 |  |  | IEIMTDRGSGKKR [SEQ ID NO: 5] | PAD4 conversion: 2 Cit (PAD4 [1]): 3%; PAD2 conversion: 2 Cit (PAD2 [2]): 60%
97 | 3 | 88 | 12 |  |  | DDYSSSRDGYGGS [SEQ ID NO: 1] | 
1 | 99 | 16 | 30 |  |  | DSYRSWRDGYYSD [SEQ ID NO: 4] | PAD4 conversion: 2 Cit (PAD4 [1]): 0%; PAD2 conversion: 2 Cit (PAD2 [2]): 55%
2 | 88 | 5 | 70 |  |  | IEIITDRQSGKKR [SEQ ID NO: 7] | PAD4 conversion: 2 Cit (PAD4 [1]): 10%; PAD2 conversion: 2 Cit (PAD2 [2]): 25%
 |  |  |  | 92% | <20% | D-S-K-F-H-F-R-Y-A-V-A-S-D (DSKFHFRYAVASD; not fully specified (C-terminus); printed as D-S-K-F-H-F-R-Y-A-V-A-S-D) [Peptide 0735-35] | Conversion (%) (PAD2 [3]): 92%
61 | 39 | 33 | 67 |  |  | GGYSGDRSGGGYG [SEQ ID NO: 2] | 

The remaining lines, values behind:

Compound | PAD4 conversion: Arg (PAD4 [1]) [%] | PAD4 conversion: 1 Cit (PAD4 [1]) [%] | PAD2 conversion: Arg (PAD2 [2]) [%] | PAD2 conversion: 1 Cit (PAD2 [2]) [%] | Conversion by PAD2 (%) (PAD2 [3]) | Conversion by PAD4 (%) (PAD4 [4]) | further results
CC(=O)NCC(=O)N[C@@H](CC(=O)O)C(=O)N[C@@H](CCCNC(=N)CCl)C(=O)NCC(=O)N[C@@H](CO)C(=O)O [CXP5.2-078, Ac-G-D-O(CA)-G-S] (Ac-GD[X1]GS-OH; N-terminus and C-terminus assumed) |  |  |  |  |  |  | IC50 (creatine kinase (CK)): 780 µM
D-S-Q-F-A-F-R-G-A-S-A-S-D (DSQFAFRGASASD) [Peptide 0308-29, reference compound] | 98 | 2 | 68 | 32 | <20(=L1) % | <20(=L1) % | Conversion (%) (PAD2 [3]): 45 (=L1) %; conversion of L1 analogs by PAD2 (PAD2 [3]; relative to conversion of L1 (L1 = 100), single substitution at positions -4 to 4): 100%; Conversion (%) (PAD4 [4]; Table 4, 13-mer peptides): 30% (=L1); conversion of L1 analogs by PAD4 (PAD4 [4]; relative to conversion of L1 under standard conditions (L1 = 100), single substitution at positions -4 to 4): 100%
COC(=O)N[C@H](C(=O)N[C@@H](CC(=O)O)C(=O)N[C@@H](CCCNC(=N)CF)C(=O)NCC(=O)N[C@@H](CO)C(=O)OC)[C@@H](C)O [CXP5-101, MeO2C-T-D-O(FA)-G-S-methylester] (Moc-TD[Orn(fluoroacetimidoyl)]GS-OMe) |  |  |  |  |  |  | IC50 (creatine kinase (CK)): 780 µM
F-F-D-S-K-H-K-S-R-D-F-V-Y-S-D (FFDSKHKSRDFVYSD) [Peptide 0612-29] |  |  |  |  | 92% | 77% | Conversion (%) (PAD4 [4]; [5]): 100%
F-F-D-S-H-K-F-D-R-D-F-I-Y-S-D (FFDSHKFDRDFIYSD) [Peptide 0612-45] |  |  |  |  | 97 ** % | 94% | Conversion (%) (PAD4 [4]; [5]): 100%
D-S-K-H-F-H-R-D-F-I-Y-S-D (DSKHFHRDFIYSD; not fully specified (C-terminus); printed as D-S-K-H-F-H-R-D-F-I-Y-S-D) [Peptide 0608-23] |  |  |  |  | 94% | 69% | 
F-F-D-S-H-K-H-S-R-E-W-L-W-S-D (FFDSHKHSREWLWSD) [Peptide 0612-38] |  |  |  |  | 96% | 72% | Conversion (%) (PAD4 [4]; [5]): 100%
D-S-K-K-H-D-R-D-H-L-W-S-D (DSKKHDRDHLWSD; not fully specified (C-terminus); printed as D-S-K-K-H-D-R-D-H-L-W-S-D) [Peptide 0708-20] |  |  |  |  | 95% | 80% | Conversion (PAD4 [4]): 62
D-S-K-K-K-H-R-E-W-V-W-S-D (DSKKKHREWVWSD; not fully specified (C-terminus); printed as D-S-K-K-K-H-R-E-W-V-W-S-D) [Peptide 0608-32] |  |  |  |  | 100% | 72% | 
D-S-K-H-K-S-R-D-F-V-Y-S-D (DSKHKSRDFVYSD; not fully specified (C-terminus); printed as D-S-K-H-K-S-R-D-F-V-Y-S-D) [Peptide 0608-27] |  |  |  |  | 94% | 69% | 
F-F-D-S-H-K-W-H-R-D-F-F-Y-S-D (FFDSHKWHRDFFYSD) [Peptide 0612-37] |  |  |  |  | 96 ** % | 88% | Conversion (%) (PAD4 [4]; [5]): 100%
F-F-D-S-H-K-K-S-R-E-Y-V-F-S-D (FFDSHKKSREYVFSD) [Peptide 0612-44] |  |  |  |  | 100% | 58% | Conversion (%) (PAD4 [4]; [5]): 100%
F-F-D-S-K-H-L-S-R-E-W-M-W-S-D (FFDSKHLSREWMWSD) [Peptide 0612-26] |  |  |  |  | 97% | 73% | Conversion (%) (PAD4 [4]; [5]): 100%
